In FireProtDB (doi:10.1016/s0301-4622(99)00119-2):
Values joined by “and” are separate entries in the source; they are usually repeats but may differ in a detail not shown here. Equal entries are not always repeated.

Conditions: Bos taurus, pH 7, Absorbance, Sodium phosphate 100 mM

Sequence of Cytochrome b wild type, P00157 (P00157 whole entry): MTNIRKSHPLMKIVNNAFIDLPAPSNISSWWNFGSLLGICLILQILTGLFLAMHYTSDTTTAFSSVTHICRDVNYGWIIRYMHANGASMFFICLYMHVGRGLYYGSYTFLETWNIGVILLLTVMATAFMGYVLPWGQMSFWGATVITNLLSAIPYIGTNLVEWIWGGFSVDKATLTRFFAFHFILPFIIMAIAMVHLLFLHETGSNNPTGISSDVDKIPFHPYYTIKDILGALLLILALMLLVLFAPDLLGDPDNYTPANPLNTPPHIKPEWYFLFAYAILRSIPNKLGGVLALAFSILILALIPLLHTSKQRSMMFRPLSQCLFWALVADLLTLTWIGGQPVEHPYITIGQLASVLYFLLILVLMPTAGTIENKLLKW

In the case of Cytochrome b wild type, P00157, the “denaturant midpoint (higher = more stable)” value (25 °C, Urea) is reported as 6.8 M and the “unfolding enthalpy (van 't Hoff)” value (Thermal) is reported as 90.1 kcal/mol and 85.6 kcal/mol.
